B1: Golgin-45 (Homo sapiens), Q9H2G9 (parent)
chain: MTTKNLETKVTVTSSPIRGAGDGMETEEPPKSVEVTSGVQSRKHHSLQSPWKKAVPSESPGVLQLGKMLTEKAMEVKAVRILVPKAAITHDIPNKNTKVKSLGHHKGEFLGQSEGVIEPNKELSEVKNVLEKLKNSERRLLQDKEGLSNQLRVQTEVNRELKKLLVASVGDDLQYHFERLAREKNQLILENEALGRNTAQLSEQLERMSIQCDVWRSKFLASRVMADELTNSRAALQRQNRDAHGAIQDLLSEREQFRQEMIATQKLLEELLVSLQWGREQTYSPSVQPHSTAELALTNHKLAKAVNSHLLGNVGINNQKKIPSTVEFCSTPAEKMAETVLRILDPVTCKESSPDNPFFESSPTTLLATKKNIGRFHPYTRYENITFNCCNHCRGELIAL
partner: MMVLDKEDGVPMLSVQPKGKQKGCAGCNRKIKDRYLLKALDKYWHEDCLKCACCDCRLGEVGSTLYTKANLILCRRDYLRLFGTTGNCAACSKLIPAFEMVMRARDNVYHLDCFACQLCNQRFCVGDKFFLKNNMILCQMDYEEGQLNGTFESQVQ
B2: Casein kinase II subunit alpha' (Homo sapiens), P19784 (parent)
chain: MPGPAAGSRARVYAEVNSLRSREYWDYEAHVPSWGNQDDYQLVRKLGRGKYSEVFEAINITNNERVVVKILKPVKKKKIKREVKILENLRGGTNIIKLIDTVKDPVSKTPALVFEYINNTDFKQLYQILTDFDIRFYMYELLKALDYCHSKGIMHRDVKPHNVMIDHQQKKLRLIDWGLAEFYHPAQEYNVRVASRYFKGPELLVDYQMYDYSLDMWSLGCMLASMIFRREPFFHGQDNYDQLVRIAKVLGTEELYGYLKKYHIDLDPHFNDILGQHSRKRWENFIHSENRHLVSPEALDLLDKLLRYDHQQRLTAKEAMEHPYFYPVVKEQSQPCADNAVLSSGLTAAR
B3: Proton-coupled zinc antiporter SLC30A2 (Homo sapiens), Q9BRI3 (parent)
chain: MEAKEKQHLLDARPAIRSYTGSLWQEGAGWIPLPRPGLDLQAIELAAQSNHHCHAQKGPDSHCDPKKGKAQRQLYVASAICLLFMIGEVVGGYLAHSLAVMTDAAHLLTDFASMLISLFSLWMSSRPATKTMNFGWQRAEILGALVSVLSIWVVTGVLVYLAVERLISGDYEIDGGTMLITSGCAVAVNIIMGLTLHQSGHGHSHGTTNQQEENPSVRAAFIHVIGDFMQSMGVLVAAYILYFKPEYKYVDPICTFVFSILVLGTTLTILRDVILVLMEGTPKGVDFTAVRDLLLSVEGVEALHSLHIWALTVAQPVLSVHIAIAQNTDAQAVLKTASSRLQGKFHFHTVTIQIEDYSEDMKDCQACQGPSD
B4: Peroxisomal bifunctional enzyme (Homo sapiens), Q08426 (parent)
chain: MAEYTRLHNALALIRLRNPPVNAISTTLLRDIKEGLQKAVIDHTIKAIVICGAEGKFSAGADIRGFSAPRTFGLTLGHVVDEIQRNEKPVVAAIQGMAFGGGLELALGCHYRIAHAEAQVGLPEVTLGLLPGARGTQLLPRLTGVPAALDLITSGRRILADEALKLGILDKVVNSDPVEEAIRFAQRVSDQPLESRRLCNKPIQSLPNMDSIFSEALLKMRRQHPGCLAQEACVRAVQAAVQYPYEVGIKKEEELFLYLLQSGQARALQYAFFAERKANKWSTPSGASWKTASARPVSSVGVVGLGTMGRGIVISFARARIPVIAVDSDKNQLATANKMITSVLEKEASKMQQSGHPWSGPKPRLTSSVKELGGVDLVIEAVFEEMSLKKQVFAELSAVCKPEAFLCTNTSALDVDEIASSTDRPHLVIGTHFFSPAHVMKLLEVIPSQYSSPTTIATVMNLSKKIKKIGVVVGNCFGFVGNRMLNPYYNQAYFLLEEGSKPEEVDQVLEEFGFKMGPFRVSDLAGLDVGWKSRKGQGLTGPTLLPGTPARKRGNRRYCPIPDVLCELGRFGQKTGKGWYQYDKPLGRIHKPDPWLSKFLSRYRKTHHIEPRTISQDEILERCLYSLINEAFRILGEGIAASPEHIDVVYLHGYGWPRHKGGPMFYASTVGLPTVLEKLQKYYRQNPDIPQLEPSDYLKKLASQGNPPLKEWQSLAGSPSSKL
partner: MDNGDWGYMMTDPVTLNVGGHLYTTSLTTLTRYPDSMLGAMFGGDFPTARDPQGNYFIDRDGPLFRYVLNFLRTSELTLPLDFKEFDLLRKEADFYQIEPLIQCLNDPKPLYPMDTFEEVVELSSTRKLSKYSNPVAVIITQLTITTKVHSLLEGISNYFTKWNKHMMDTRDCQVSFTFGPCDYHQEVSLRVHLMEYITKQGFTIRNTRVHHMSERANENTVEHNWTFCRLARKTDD

Variants of: B1
Conditions: with rbtn1_human LMO1, P25800

| effect of a mutation on the interaction | Variant |
| --- | --- |
| with no effect | MTTKNLETKVTVTSSPIRGAGDGMETEEPPKSVEVTSGVQSRKHRSLQSPWKKAVPSESPGVLQLGKMLTEKAMEVKAVRILVPKAAITHDIPNKNTKVKSLGHHKGEFLGQSEGVIEPNKELSEVKNVLEKLKNSERRLLQDKEGLSNQLRVQTEVNRELKKLLVASVGDDLQYHFERLAREKNQLILENEALGRNTAQLSEQLERMSIQCDVWRSKFLASRVMADELTNSRAALQRQNRDAHGAIQDLLSEREQFRQEMIATQKLLEELLVSLQWGREQTYSPSVQPHSTAELALTNHKLAKAVNSHLLGNVGINNQKKIPSTVEFCSTPAEKMAETVLRILDPVTCKESSPDNPFFESSPTTLLATKKNIGRFHPYTRYENITFNCCNHCRGELIAL [H45R] |
| with no effect | MTTKNLETKVTVTSSPIRGAGDGMETEEPPKSVEVTSGVRSRKHHSLQSPWKKAVPSESPGVLQLGKMLTEKAMEVKAVRILVPKAAITHDIPNKNTKVKSLGHHKGEFLGQSEGVIEPNKELSEVKNVLEKLKNSERRLLQDKEGLSNQLRVQTEVNRELKKLLVASVGDDLQYHFERLAREKNQLILENEALGRNTAQLSEQLERMSIQCDVWRSKFLASRVMADELTNSRAALQRQNRDAHGAIQDLLSEREQFRQEMIATQKLLEELLVSLQWGREQTYSPSVQPHSTAELALTNHKLAKAVNSHLLGNVGINNQKKIPSTVEFCSTPAEKMAETVLRILDPVTCKESSPDNPFFESSPTTLLATKKNIGRFHPYTRYENITFNCCNHCRGELIAL [Q40R] |

Variants of: B2
Conditions: with tri41_human TRIM41, Q8WV44

| effect of a mutation on the interaction | Variant |
| --- | --- |
| with no effect | N63T |

Variants of: B3
Conditions: with tnr12_human TNFRSF12A

| effect of a mutation on the interaction | Variant |
| --- | --- |
| with no effect | MEAKEKQHLLDARPAIRSYTGSLWQEGAGWIPLPRPGLDLQAIELAAQSNHHCHAQKGPDSHCDPKKGKAQRQLYVASAICLLFMIGEVVGGYLAHSLAVMTDAAHLLTDFASMLISLFSLWMSSRPATKTMNFGWQRAEILGALVSVLSIWVVTGVLVYLAVERLISGDYEIDGGTMLIMSGCAVAVNIIMGLTLHQSGHGHSHGTTNQQEENPSVRAAFIHVIGDFMQSMGVLVAAYILYFKPEYKYVDPICTFVFSILVLGTTLTILRDVILVLMEGTPKGVDFTAVRDLLLSVEGVEALHSLHIWALTVAQPVLSVHIAIAQNTDAQAVLKTASSRLQGKFHFHTVTIQIEDYSEDMKDCQACQGPSD [T181M] |

Variants of: B3
Conditions: with ada33_human ADAM33, Q9BZ11
Chain of ada33_human ADAM33, Q9BZ11 (Q9BZ11 whole entry): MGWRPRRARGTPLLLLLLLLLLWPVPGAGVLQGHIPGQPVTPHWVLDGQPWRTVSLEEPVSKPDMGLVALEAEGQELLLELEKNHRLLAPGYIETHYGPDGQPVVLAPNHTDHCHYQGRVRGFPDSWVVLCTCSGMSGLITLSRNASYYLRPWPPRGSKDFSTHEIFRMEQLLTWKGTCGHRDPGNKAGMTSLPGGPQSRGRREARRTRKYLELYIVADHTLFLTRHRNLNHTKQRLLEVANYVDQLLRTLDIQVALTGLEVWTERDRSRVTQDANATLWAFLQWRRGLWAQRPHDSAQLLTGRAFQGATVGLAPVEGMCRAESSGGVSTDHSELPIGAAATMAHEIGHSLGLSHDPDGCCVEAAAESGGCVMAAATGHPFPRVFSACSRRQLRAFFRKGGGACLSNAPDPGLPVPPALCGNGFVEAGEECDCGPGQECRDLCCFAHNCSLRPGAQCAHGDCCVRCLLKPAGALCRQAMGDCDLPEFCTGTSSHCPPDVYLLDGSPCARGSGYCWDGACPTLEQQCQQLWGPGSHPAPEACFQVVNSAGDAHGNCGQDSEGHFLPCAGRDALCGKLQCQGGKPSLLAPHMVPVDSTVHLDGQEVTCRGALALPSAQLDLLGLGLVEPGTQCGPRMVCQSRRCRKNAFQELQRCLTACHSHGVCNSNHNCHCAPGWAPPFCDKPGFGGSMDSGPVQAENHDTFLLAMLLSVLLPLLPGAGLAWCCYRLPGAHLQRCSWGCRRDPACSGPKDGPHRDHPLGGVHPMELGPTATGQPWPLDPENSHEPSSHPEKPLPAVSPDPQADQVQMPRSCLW

| effect of a mutation on the interaction | Variant |
| --- | --- |
| with no effect | MEAKEKQHLLDARPAIRSYTGSLWQEGAGWIPLPRPGLDLQAIELAAQSNHHCHAQKGPDSHCDPKKGKAQRQLYVASAICLLFMIGEVVGGYLAHSLAVMTDAAHLLTDFASMLISLFSLWMSSRPATKTMNFGWQRAEILGALVSVLSIWVVTGVLVYLAVERLISGDYEIDGGTMLIMSGCAVAVNIIMGLTLHQSGHGHSHGTTNQQEENPSVRAAFIHVIGDFMQSMGVLVAAYILYFKPEYKYVDPICTFVFSILVLGTTLTILRDVILVLMEGTPKGVDFTAVRDLLLSVEGVEALHSLHIWALTVAQPVLSVHIAIAQNTDAQAVLKTASSRLQGKFHFHTVTIQIEDYSEDMKDCQACQGPSD [T181M] |

Variants of: B3
Conditions: with ccl4_human CCL4, P13236
Chain of ccl4_human CCL4, P13236 (P13236 whole entry): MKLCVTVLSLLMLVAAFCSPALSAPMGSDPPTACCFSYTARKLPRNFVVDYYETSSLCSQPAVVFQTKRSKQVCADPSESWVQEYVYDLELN

| effect of a mutation on the interaction | Variant |
| --- | --- |
| with no effect | MEAKEKQHLLDARPAIRSYTGSLWQEGAGWIPLPRPGLDLQAIELAAQSNHHCHAQKGPDSHCDPKKGKAQRQLYVASAICLLFMIGEVVGGYLAHSLAVMTDAAHLLTDFASMLISLFSLWMSSRPATKTMNFGWQRAEILGALVSVLSIWVVTGVLVYLAVERLISGDYEIDGGTMLIMSGCAVAVNIIMGLTLHQSGHGHSHGTTNQQEENPSVRAAFIHVIGDFMQSMGVLVAAYILYFKPEYKYVDPICTFVFSILVLGTTLTILRDVILVLMEGTPKGVDFTAVRDLLLSVEGVEALHSLHIWALTVAQPVLSVHIAIAQNTDAQAVLKTASSRLQGKFHFHTVTIQIEDYSEDMKDCQACQGPSD [T181M] |

Variants of: B4
Conditions: with kctd6_human KCTD6, Q8NC69

| effect of a mutation on the interaction | Variant |
| --- | --- |
| with no effect | S703F |
